Assay results: patent US20220275097A1
Substitutions are numbered along the chain they refer to.

B1: S2H7 (antibody, V domains shown)
VH: QVQLLQSGGGVVQPGRSLRLSCAASGFTFSSYGMHWVRQAPGKGLEWVAVISYDGSNKYYADSVKGRFTISRDNSKNTLYLQMNSLRAEDTAVYYCATRYENYFSTWGQGTLVTVSS
VL: EIVLTQSPGTLSLSPGERATLSCRASQSVSSNYLAWYQQKPGQAPRLLIYGASSRPTGIPDRFSGSGSGTDFTLTISRLEPEDFAVYYCQQYAASPLTFGGGTKLEIK
B2: S2H5 (antibody, V domains shown)
VH: B1 VH with T98S, T106L
VL: B1 VL
B3: S2H1 (antibody, V domains shown)
VH: B1 VH with T98S, R99L, T106L
VL: B1 VL
B4: S2H3 (antibody, V domains shown)
VH: B1 VH with T98G, R99V, Y100R, S105T, T106Y
VL: B1 VL
B5: S2H2 (antibody, V domains shown)
VH: B1 VH with R99F, Y100R, S105E, T106Y
VL: B1 VL

The binders below were run against leptin receptor on reporter cells (SIE-luciferase reporter cells; Ba/F3-lepR reporter cells), P48357 (assay: cell-based or functional assay).
leptin receptor on reporter cells (SIE-luciferase reporter cells; Ba/F3-lepR reporter cells), P48357, sequence (P48357 22-1165): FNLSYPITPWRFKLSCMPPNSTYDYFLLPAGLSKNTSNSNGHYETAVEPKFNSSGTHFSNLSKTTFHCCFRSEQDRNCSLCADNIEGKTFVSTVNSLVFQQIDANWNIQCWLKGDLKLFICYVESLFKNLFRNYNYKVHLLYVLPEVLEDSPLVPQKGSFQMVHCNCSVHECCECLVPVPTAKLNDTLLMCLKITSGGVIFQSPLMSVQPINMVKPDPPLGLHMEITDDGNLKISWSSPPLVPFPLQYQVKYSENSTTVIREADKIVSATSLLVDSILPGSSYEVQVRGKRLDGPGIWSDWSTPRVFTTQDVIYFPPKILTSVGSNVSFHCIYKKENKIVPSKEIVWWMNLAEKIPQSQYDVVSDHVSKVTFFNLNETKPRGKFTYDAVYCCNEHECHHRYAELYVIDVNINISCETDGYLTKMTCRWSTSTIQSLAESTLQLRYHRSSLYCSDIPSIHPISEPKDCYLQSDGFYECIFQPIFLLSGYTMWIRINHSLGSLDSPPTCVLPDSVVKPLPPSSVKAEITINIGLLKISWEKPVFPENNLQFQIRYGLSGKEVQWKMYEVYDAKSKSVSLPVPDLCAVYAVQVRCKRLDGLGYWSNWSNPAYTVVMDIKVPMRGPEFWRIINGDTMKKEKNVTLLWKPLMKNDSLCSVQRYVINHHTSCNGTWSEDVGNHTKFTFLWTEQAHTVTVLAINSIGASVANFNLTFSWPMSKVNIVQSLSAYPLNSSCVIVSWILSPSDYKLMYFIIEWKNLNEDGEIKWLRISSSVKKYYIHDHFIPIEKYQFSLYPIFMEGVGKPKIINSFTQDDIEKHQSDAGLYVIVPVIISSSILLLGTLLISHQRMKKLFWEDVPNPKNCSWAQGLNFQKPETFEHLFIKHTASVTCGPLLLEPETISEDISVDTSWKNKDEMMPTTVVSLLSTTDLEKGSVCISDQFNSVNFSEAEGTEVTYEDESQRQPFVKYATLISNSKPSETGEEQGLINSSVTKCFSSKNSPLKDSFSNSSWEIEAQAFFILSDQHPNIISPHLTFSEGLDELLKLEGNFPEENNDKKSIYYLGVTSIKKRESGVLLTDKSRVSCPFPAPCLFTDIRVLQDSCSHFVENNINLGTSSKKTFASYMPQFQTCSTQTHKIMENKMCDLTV
B1 gave an EC50(M), Cell proliferation assay (Ba/F3-lepR) of 1.15e-09 M, an EC50(M), Luciferase assay of 4.94e-10 M and an EC50, SIE-luciferase reporter assay of 0.494 nM.
In the case of B2, the EC50(M), Cell proliferation assay (Ba/F3-lepR) is reported as 1.63e-09 M, the EC50(M), Luciferase assay is reported as 7.38e-10 M and the EC50, SIE-luciferase reporter assay is reported as 0.738 nM.
B3 showed an EC50(M), Cell proliferation assay (Ba/F3-lepR) of 4.19e-10 M, an EC50(M), Luciferase assay of 4.53e-10 M and an EC50, SIE-luciferase reporter assay of 0.453 nM.
B4 was tested, and the EC50(M), Cell proliferation assay (Ba/F3-lepR) was 1.93e-10 M, the EC50(M), Luciferase assay was 3.28e-10 M and the EC50, SIE-luciferase reporter assay was 0.328 nM.
In the case of B5, the EC50(M), Cell proliferation assay (Ba/F3-lepR) is reported as 6.87e-10 M, the EC50(M), Luciferase assay is reported as 6.52e-10 M and the EC50, SIE-luciferase reporter assay is reported as 0.652 nM.
